These results are taken from publication PMC4601081, “A Single α Helix Drives Extensive Remodeling of the Proteasome Lid and Completion of Regulatory Particle Assembly” (Cell, 2015).

First the molecules themselves.
T1: Rpn3, subunit of LP2 and lid purified from yeast (S. cerevisiae, UniProt P40016 1-523)
T1 construct: Rpn3, S. cerevisiae proteasome lid subunit; source: purified from S. cerevisiae as part of LP2 or lid
T1 sequence (looked up): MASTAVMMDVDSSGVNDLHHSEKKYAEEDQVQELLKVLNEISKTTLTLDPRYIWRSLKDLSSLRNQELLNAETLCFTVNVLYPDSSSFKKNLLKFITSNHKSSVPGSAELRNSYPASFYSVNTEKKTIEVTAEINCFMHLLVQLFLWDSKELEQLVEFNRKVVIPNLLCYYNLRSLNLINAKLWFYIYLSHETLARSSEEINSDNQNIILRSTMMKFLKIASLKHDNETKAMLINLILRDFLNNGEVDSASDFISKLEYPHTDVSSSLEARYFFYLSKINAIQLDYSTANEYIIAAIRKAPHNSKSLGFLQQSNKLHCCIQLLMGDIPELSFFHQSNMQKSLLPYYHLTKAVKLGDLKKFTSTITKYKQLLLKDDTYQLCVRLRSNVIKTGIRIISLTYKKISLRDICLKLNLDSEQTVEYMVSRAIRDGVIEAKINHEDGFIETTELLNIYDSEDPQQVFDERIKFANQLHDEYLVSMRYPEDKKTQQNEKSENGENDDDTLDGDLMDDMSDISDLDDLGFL

T2: Rpn7, subunit of LP2 and lid purified from yeast (S. cerevisiae, UniProt Q06103 1-429)
T2 construct: Rpn7, S. cerevisiae proteasome lid subunit; source: purified from S. cerevisiae as part of LP2 or lid
T2 sequence (looked up): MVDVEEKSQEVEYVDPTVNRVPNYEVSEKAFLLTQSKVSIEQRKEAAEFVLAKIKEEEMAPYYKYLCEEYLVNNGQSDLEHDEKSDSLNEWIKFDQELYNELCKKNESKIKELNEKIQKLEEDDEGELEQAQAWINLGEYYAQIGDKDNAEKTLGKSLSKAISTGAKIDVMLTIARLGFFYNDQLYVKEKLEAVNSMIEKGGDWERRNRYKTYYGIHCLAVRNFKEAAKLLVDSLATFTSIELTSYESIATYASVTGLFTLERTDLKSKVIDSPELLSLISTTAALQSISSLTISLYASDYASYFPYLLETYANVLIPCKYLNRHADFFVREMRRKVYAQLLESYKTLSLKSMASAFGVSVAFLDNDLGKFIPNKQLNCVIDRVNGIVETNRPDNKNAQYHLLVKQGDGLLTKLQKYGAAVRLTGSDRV

T3: Rpn9, subunit of LP2 and lid purified from yeast (S. cerevisiae, UniProt Q04062 1-393)
T3 construct: Rpn9, S. cerevisiae proteasome lid subunit; source: purified from S. cerevisiae as part of LP2 or lid
T3 sequence (looked up): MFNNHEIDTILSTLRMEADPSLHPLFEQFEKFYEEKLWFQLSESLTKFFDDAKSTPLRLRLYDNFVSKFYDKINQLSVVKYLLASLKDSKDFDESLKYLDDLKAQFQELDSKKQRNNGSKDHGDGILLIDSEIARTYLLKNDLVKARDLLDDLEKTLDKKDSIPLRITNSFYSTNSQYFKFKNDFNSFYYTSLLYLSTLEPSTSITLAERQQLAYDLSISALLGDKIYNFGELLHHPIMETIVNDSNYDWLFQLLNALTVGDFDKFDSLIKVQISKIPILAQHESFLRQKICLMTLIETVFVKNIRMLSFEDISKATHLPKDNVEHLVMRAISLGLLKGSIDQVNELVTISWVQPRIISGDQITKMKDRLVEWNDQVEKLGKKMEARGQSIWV

B1: Rpn5, subunit of LP2 and lid purified from yeast (natural protein, S. cerevisiae, UniProt Q12250 1-445, looked up)
chain: MSRDAPIKADKDYSQILKEEFPKIDSLAQNDCNSALDQLLVLEKKTRQASDLASSKEVLAKIVDLLASRNKWDDLNEQLTLLSKKHGQLKLSIQYMIQKVMEYLKSSKSLDLNTRISVIETIRVVTENKIFVEVERARVTKDLVEIKKEEGKIDEAADILCELQVETYGSMEMSEKIQFILEQMELSILKGDYSQATVLSRKILKKTFKNPKYESLKLEYYNLLVKISLHKREYLEVAQYLQEIYQTDAIKSDEAKWKPVLSHIVYFLVLSPYGNLQNDLIHKIQNDNNLKKLESQESLVKLFTTNELMRWPIVQKTYEPVLNEDDLAFGGEANKHHWEDLQKRVIEHNLRVISEYYSRITLLRLNELLDLTESQTETYISDLVNQGIIYAKVNRPAKIVNFEKPKNSSQLLNEWSHNVDELLEHIETIGHLITKEEIMHGLQAK
notes: Rpn5, S. cerevisiae proteasome lid subunit; source: purified from S. cerevisiae as part of LP2 or lid
B2: Sem1, subunit of LP2 and lid purified from yeast (natural protein, S. cerevisiae, UniProt O94742 1-89, looked up)
chain: MSTDVAAAQAQSKIDLTKKKNEEINKKSLEEDDEFEDFPIDTWANGETIKSNAVTQTNIWEENWDDVEVDDDFTNELKAELDRYKRENQ
notes: Sem1, S. cerevisiae proteasome lid subunit; source: purified from S. cerevisiae as part of LP2 or lid
B3: Rpn12-E271K, recombinant (natural protein, S. cerevisiae, UniProt P32496 1-274, looked up)
chain: MPSLAELTKSLSIAFENGDYAACEKLLPPIKIELIKNNLLIPDLSIQNDIYLNDLMITKRILEVGALASIQTFNFDSFENYFNQLKPYYFSNNHKLSESDKKSKLISLYLLNLLSQNNTTKFHSELQYLDKHIKNLEDDSLLSYPIKLDRWLMEGSYQKAWDLLQSGSQNISEFDSFTDILKSAIRDEIAKNTELSYDFLPLSNIKALLFFNNEKETEKFALERNWPIVNSKVYFNNQSKEKADYEDEMMHEEDQKTNIIEKAMDYAISIKNIV
notes: Rpn12, S. cerevisiae proteasome lid subunit, Glu271 to lysine
B4: Rpn6, subunit of LP2 and lid purified from yeast (natural protein, S. cerevisiae, UniProt Q12377 1-434, looked up)
chain: MSLPGSKLEEARRLVNEKQYNEAEQVYLSLLDKDSSQSSAAAGASVDDKRRNEQETSILELGQLYVTMGAKDKLREFIPHSTEYMMQFAKSKTVKVLKTLIEKFEQVPDSLDDQIFVCEKSIEFAKREKRVFLKHSLSIKLATLHYQKKQYKDSLALINDLLREFKKLDDKPSLVDVHLLESKVYHKLRNLAKSKASLTAARTAANSIYCPTQTVAELDLMSGILHCEDKDYKTAFSYFFESFESYHNLTTHNSYEKACQVLKYMLLSKIMLNLIDDVKNILNAKYTKETYQSRGIDAMKAVAEAYNNRSLLDFNTALKQYEKELMGDELTRSHFNALYDTLLESNLCKIIEPFECVEISHISKIIGLDTQQVEGKLSQMILDKIFYGVLDQGNGWLYVYETPNQDATYDSALELVGQLNKVVDQLFEKASVLY
notes: Rpn6, S. cerevisiae proteasome lid subunit; Also stands as the whole protein for the region row on the E. coli truncations; source: purified from S. cerevisiae as part of LP2 or lid
B5: Rpn8, subunit of LP2 and lid purified from yeast (natural protein, S. cerevisiae, UniProt Q08723 1-338, looked up)
chain: MSLQHEKVTIAPLVLLSALDHYERTQTKENKRCVGVILGDANSSTIRVTNSFALPFEEDEKNSDVWFLDHNYIENMNEMCKKINAKEKLIGWYHSGPKLRASDLKINELFKKYTQNNPLLLIVDVKQQGVGLPTDAYVAIEQVKDDGTSTEKTFLHLPCTIEAEEAEEIGVEHLLRDVRDQAAGGLSIRLTNQLKSLKGLQSKLKDVVEYLDKVINKELPINHTILGKLQDVFNLLPNLGTPDDDEIDVENHDRINISNNLQKALTVKTNDELMVIYISNLVRSIIAFDDLIENKIQNKKIQEQRVKDKQSKVSDDSESESGDKEATAPLIQRKNKKN
notes: Rpn8, S. cerevisiae proteasome lid subunit; source: purified from S. cerevisiae as part of LP2 or lid

Conditions in all cases: both partners purified
The target in test [1] is T1, Rpn3, subunit of LP2 and lid purified …. The test is described as follows: cross-linking; QCLMS of lid purified from yeast as a whole complex: BS3-d0 / BS3-d4 at 1:200 protein to cross-linker, Buffer HA, 30°C 1 h; monomeric cross-linked complex cut from SDS-PAGE, trypsin, LC-MS/MS.
Test [2] shares this target. The test is described as follows: cross-linking; QCLMS of LP2 purified from yeast as a whole complex: BS3-d0 / BS3-d4 at 1:200 protein to cross-linker, Buffer HA, 30°C 1 h; monomeric cross-linked complex cut from SDS-PAGE, trypsin, LC-MS/MS.
Test [3] concerns the target T2, Rpn7, subunit of LP2 and lid purified …. Described as above.
The target of test [4] is B5. Nature of the test: cross-linking; QCLMS of lid purified from yeast as a whole complex: BS3-d0 / BS3-d4 at 1:200 protein to cross-linker, Buffer HA, 30°C 1 h; monomeric cross-linked complex cut from SDS-PAGE, trypsin, LC-MS/MS.
For test [5], the target named is T4, lid particle 2 (LP2), recombinant (S. cerevisiae, UniProt P40016 1-523; Q12250 1-445; Q12377 1-434; Q06103 1-429; Q08723 1-338; Q04062 …).
T4 construct: Rpn3, S. cerevisiae proteasome lid subunit; Rpn5, S. cerevisiae proteasome lid subunit; Rpn6, S. cerevisiae proteasome lid subunit; Rpn7, S. cerevisiae proteasome lid subunit; Rpn8, S. cerevisiae proteasome lid subunit; Rpn9, S. cerevisiae proteasome lid subunit; Rpn11, S. cerevisiae proteasome lid subunit; Sem1, S. cerevisiae proteasome lid subunit; legends speak of 'untagged LP2'; operons as in …
The test is described as follows: native gel or EMSA; RP assembly assay: recombinant components 1 uM each with 10 uM Rpn10 in 26S buffer (50 mM Tris-HCl pH 7.5, 5 mM MgCl2, 10% glycerol, 1 mM ATP), 30°C 20 min; native PAGE at 4°C; Coomassie or immunoblot (FLAG on Rpt1, HA on Rpn7, Rpn12). (In general: A gel shift assay detects complexes by their altered migration in electrophoresis.)

Test [6] has as its target T1, Rpn3, subunit of LP2 and lid purified …. The test is described as follows: negative-stain EM; single-particle 3D reconstruction of LP2 purified from yeast at 16 Å; ~50 nM complex in Buffer A, 2% uranyl acetate.
The target of test [7] is B1. The test is described as follows: cross-linking; QCLMS of lid purified from yeast as a whole complex: BS3-d0 / BS3-d4 at 1:200 protein to cross-linker, Buffer HA, 30°C 1 h; monomeric cross-linked complex cut from SDS-PAGE, trypsin, LC-MS/MS.
In test [8] the target is B4. Nature of the test: cross-linking; QCLMS of LP2 purified from yeast as a whole complex: BS3-d0 / BS3-d4 at 1:200 protein to cross-linker, Buffer HA, 30°C 1 h; monomeric cross-linked complex cut from SDS-PAGE, trypsin, LC-MS/MS.
In test [9] the target is T3, Rpn9, subunit of LP2 and lid purified …. The description is as above.

T4 sequence (P43588 whole entry, one chain of several): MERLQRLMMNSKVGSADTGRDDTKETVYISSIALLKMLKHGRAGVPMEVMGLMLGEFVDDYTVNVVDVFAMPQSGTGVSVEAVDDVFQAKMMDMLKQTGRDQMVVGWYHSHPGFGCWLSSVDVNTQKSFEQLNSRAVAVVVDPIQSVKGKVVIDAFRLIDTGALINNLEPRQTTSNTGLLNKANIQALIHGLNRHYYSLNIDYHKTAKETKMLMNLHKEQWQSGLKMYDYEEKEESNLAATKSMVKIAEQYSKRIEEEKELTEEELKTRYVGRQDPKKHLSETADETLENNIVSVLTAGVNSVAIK

For B1, the binding result in test [1] is given as “binds”.
Regarding B2, the binding result in test [2], in test [3] and in [4] was “binds” throughout.
As for B3, the binding result in test [5] was “binds”.
In the case of B4, the binding result in test [6] and in [7] was “binds” each time.
On to B5, for which the binding result in test [8], in test [9] and in [7] was “binds” throughout.
